The results in this text go back to publication PMC3652857, “A Cryptic Targeting Signal Creates a Mitochondrial FEN1 Isoform with Tailed R-Loop Binding Properties”.

Series [1] concerns the target T1, FENMIT (human, UniProt P39748-2 1-316). Kind of series: EMSA; 25 mM Tris pH 8.0, 1 mM DTT, 0.1 mg/ml BSA, 6% glycerol; 0.2 nM 32P substrate; 1 h on ice; 10% native PAGE in tris-borate. The following applies: protein: recombinant, tags: His. For orientation: A gel shift assay detects complexes by their altered migration in electrophoresis.
Series [2] concerns the target FEN1 (FEN1-1.His) (human, UniProt P39748 1-380). The description is as above. The following applies: protein: recombinant; tags: His; label: 5'-32P on 19DNA; equilibrating double flap: 19 nt 5' DNA flap, 1 nt 3' flap.
The target in series [3] is FEN1 D181A (human, UniProt P39748 1-380, D181A). The description is as above. The following applies: protein: recombinant; tags: His; label: 5'-32P on 19DNA; equilibrating double flap: 19 nt 5' DNA flap, 1 nt 3' flap.
FEN1 D181A, sequence (P39748 whole entry D181A): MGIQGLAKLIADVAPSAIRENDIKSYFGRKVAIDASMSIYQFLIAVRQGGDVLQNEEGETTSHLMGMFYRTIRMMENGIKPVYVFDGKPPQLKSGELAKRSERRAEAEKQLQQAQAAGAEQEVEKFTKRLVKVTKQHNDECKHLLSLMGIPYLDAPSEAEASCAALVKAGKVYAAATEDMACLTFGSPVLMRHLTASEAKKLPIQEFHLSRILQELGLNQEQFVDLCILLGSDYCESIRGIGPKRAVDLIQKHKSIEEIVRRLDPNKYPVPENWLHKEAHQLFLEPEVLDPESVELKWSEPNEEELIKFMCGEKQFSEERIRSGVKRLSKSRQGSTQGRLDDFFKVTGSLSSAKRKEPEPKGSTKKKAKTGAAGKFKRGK
For series [4], the target named is T1, FENMIT. Kind of series: EMSA; 1-50 nM FENMIT; 25 mM Tris pH 8.0, 1 mM DTT, 0.1 mg/ml BSA, 6% glycerol; 0.2 nM 32P substrate; 1 h on ice; 10% native PAGE in tris-borate. The following applies: protein: recombinant; tags: His; label: 5'-32P; single strand.
Series [5] deals with T1, FENMIT. As to the kind of experiment: EMSA; 1-50 nM FENMIT; equal to short 3' flap; 25 mM Tris pH 8.0, 1 mM DTT, 0.1 mg/ml BSA, 6% glycerol; 0.2 nM 32P substrate; 1 h on ice; 10% native PAGE in tris-borate. The following applies: protein: recombinant; tags: His; label: 5'-32P on RNA44; 5' RNA flap with 20 nt 3' DNA flap.
In series [6] the target is T1, FENMIT. Kind of series: competition; 25 nM FENMIT; cold RNA44 0-5 nM; 25 mM Tris pH 8.0, 1 mM DTT, 0.1 mg/ml BSA, 6% glycerol; 0.2 nM 32P substrate; 1 h on ice; 10% native PAGE in tris-borate. Particulars: protein: recombinant; tags: His; label: 5'-32P on RNA44; equilibrating full 5' RNA flap, 1 nt 3' DNA flap.

T1 sequence (P39748 65-380): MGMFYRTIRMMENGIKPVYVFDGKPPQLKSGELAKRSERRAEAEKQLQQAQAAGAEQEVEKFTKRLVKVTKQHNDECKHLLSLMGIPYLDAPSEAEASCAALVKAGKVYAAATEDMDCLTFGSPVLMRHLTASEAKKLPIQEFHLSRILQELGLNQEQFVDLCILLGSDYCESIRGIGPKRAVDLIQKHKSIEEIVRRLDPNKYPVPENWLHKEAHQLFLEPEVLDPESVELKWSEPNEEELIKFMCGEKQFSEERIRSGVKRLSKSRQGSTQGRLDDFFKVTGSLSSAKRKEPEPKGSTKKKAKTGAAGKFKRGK
FEN1 (FEN1-1.His), sequence (P39748 whole entry): as the sequence (P39748 whole entry D181A) above, with A181D counted along it

B1: T1:U1:19DNA* equilibrating 5' DNA flap (structured_DNA)
DNA 1: GTCGACCTGCAGCCCAAGCTTGCGTTGCTG
DNA 2: CAGCAACGCAAGCTTGC
DNA 3: ATGTGGAAAATCTCTAGCAGGCTGCAGGTCGAC
In the case of B1, the binding result is “no binding” in series [1] (label: 5'-32P on 19DNA, equilibrating double flap: 19 nt 5' DNA flap, 1 nt 3' flap); “binds” in series [2]; “binds” in series [3].

Regarding UCAACGUGGGCAAAGAAUGUCCUACGUCCGAUACGGAUAAUCGC (ssRNA) [RNA44 ssRNA], the binding signal in series [4] was 3 fold lower affinity than RNA flap substrates.

B2: U3:T2:RNA44* 5' RNA flap with 20 nt 3' flap (mixed)
DNA 1: GCGATTATCCGTATCGGACGTAGGAAGCCTGCCATTTGATGGTC
DNA 2: GACCATCAAATGGCAGGCTGAACGAACAAAGCGAAAGCG
RNA: UCAACGUGGGCAAAGAAUGUCCUACGUCCGAUACGGAUAAUCGC
B2: in series [5], the binding result is given as “binds”.

B3: T6:D1:RNA44* R-loop (mixed)
DNA 1: CTGCGTCGGCTTAAGATGGTGCGATTATCCGTATCGGACGTAGGACATTCTTTGCCCACGTTGATGGGTAGATAGCCTAACCGG
DNA 2: CCGGTTAGGCTATCTACCCATAAGTTTATTCCCTGCTCTTAGCAGATGGAGTCTGTGAACTGCAATCAATACCATCTTAAGCCGACGCAG
RNA: UCAACGUGGGCAAAGAAUGUCCUACGUCCGAUACGGAUAAUCGC
For the molecule B3, the binding result in series [1] (label: 5'-32P on RNA44, R-loop without RNA flap) was “binds”.

B4: T2:U2:RNA44* 5' RNA flap (mixed)
DNA 1: GCGATTATCCGTATCGGACGTAGGAAGCCTGCCATTTGATGGTC
DNA 2: GACCATCAAATGGCAGGCTG
RNA: UCAACGUGGGCAAAGAAUGUCCUACGUCCGAUACGGAUAAUCGC
B4: the binding signal in series [6] was 3 fold more cold RNA44 for half competition than labeled ssRNA needs.
